The values below come from PMC6150732.

This assay addresses encapsulin from Brevibacterium linens (Brevibacterium linens). Briefly: cryo-EM structure.

In turn, “dye-decolorizing peroxidase (DyP) from Brevibacterium linens (enzyme)” showed a stoichiometry N (DyP hexamer per encapsulin particle) of 1.
Consider “encapsulin from Brevibacterium linens (natural protein)”, for which the stoichiometry N (subunits per particle) came out at 60.
